Experimental data published in article PMC10272187, “PPP2R1A regulates migration persistence through the NHSL1-containing WAVE Shell Complex” (Nature Communications, 2023).

Target: T1, WAVE1 (1-230) (UniProt Q92558 1-230)
T1 construct: WAVE1 residues 1-230; also called WAVE1 N-terminus; source: E.coli, purified
T1 sequence (looked up): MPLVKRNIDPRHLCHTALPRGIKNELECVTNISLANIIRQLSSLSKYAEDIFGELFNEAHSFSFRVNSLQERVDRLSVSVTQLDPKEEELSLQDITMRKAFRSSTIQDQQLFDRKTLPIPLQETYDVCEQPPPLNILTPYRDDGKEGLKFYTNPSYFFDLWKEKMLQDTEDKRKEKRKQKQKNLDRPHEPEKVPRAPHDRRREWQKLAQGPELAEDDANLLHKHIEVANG
Assay: SEC; Recombinant subunits expressed individually; CYFIP1-NCKAP1 dimer and BRK1-ABI1-NHSL1 (or WAVE1) trimer reconstituted; pentamers purified on SOURCE 15Q and Superdex 200 (24 ml column)
Details: both partners purified

B1: BRK1 (recombinant) (natural protein, UniProt Q8WUW1 1-75, looked up)
chain: MAGQEDPVQREIHQDWANREYIEIITSSIKKIADFLNSFDMSCRSRLATLNEKLTALERRIEYIEARVTKGETLT
notes: BRK1; source: E.coli, purified
  binding result: binds
